Test results from article PMC12756731, “Substitution of Zn^2+ with Ni^2+ Alters Kinetic Steps in D‑2-Hydroxyglutarate Dehydrogenase from Pseudomonas aeruginosa PAO1” (ACS Omega, 2025).

T1: D-2-hydroxyglutarate dehydrogenase (P. aeruginosa D2HGDH; EFAD-Zn^2+, EFAD-Ni^2+) (Pseudomonas aeruginosa, UniProt Q9I6H4)
T1 construct: gene PA0317; 6 His-tag at the tail of the gene (C-terminal), pET20b(+), E. coli Rosetta(DE3)pLysS; loaded with Zn2+ or Ni2+
T1 sequence (Q9I6H4 1-464): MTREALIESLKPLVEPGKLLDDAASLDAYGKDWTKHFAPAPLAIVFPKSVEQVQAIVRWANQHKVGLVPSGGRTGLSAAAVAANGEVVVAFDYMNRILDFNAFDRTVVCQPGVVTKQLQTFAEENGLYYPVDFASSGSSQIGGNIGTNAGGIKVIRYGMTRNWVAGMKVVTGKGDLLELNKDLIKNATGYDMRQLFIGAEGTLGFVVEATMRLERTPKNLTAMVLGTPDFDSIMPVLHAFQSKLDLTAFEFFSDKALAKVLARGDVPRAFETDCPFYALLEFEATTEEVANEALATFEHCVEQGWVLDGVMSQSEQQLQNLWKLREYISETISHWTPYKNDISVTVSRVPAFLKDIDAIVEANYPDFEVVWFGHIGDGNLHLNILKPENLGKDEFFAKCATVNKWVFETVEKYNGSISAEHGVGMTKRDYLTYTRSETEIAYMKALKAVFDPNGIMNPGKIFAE


What was measured:
[1] = target: T1, D-2-hydroxyglutarate dehydrogenase (P. aeruginosa D2HGDH; EFAD-Zn^2+, EFAD-Ni^2+); assay: UV-vis absorbance of purified enzyme with bound flavin; assay type: binding; details: co-purified oxidized FAD in EFAD-Ni2+ enzyme; maxima at 380 and 450 nm
[2] = substrate: O=C(O)CC[C@@H](O)C(=O)O; assay: PMS-driven oxygen consumption, Clark-type oxygen electrode, initial rates; assay type: biochemical, Pseudomonas aeruginosa; details: 1 mM PMS (saturating), 25 mM NaPO4, pH 7.4, 25 °C
Description: PMS-driven oxygen consumption, Clark-type oxygen electrode, initial rates on D-2-hydroxyglutarate dehydrogenase (P. aeruginosa D2HGDH; EFAD-Zn^2+, EFAD-Ni^2+)

[3] = Ni2+-substituted enzyme (EFAD-Ni2+), non-native metal
[4] = native Zn2+-loaded enzyme (EFAD-Zn2+)

Row | Molecule | UV-vis absorbance of purified enzyme with bound flavin [1] | Km [2, 3] [µM] | kcat [2, 3] [s⁻¹] | kcat/Km [2, 3] [M⁻¹ s⁻¹] | Km [2, 4] [µM] | kcat [2, 4] [s⁻¹] | kcat/Km [2, 4] [M⁻¹ s⁻¹]
1 | Cc1cc2nc3c(=O)[nH]c(=O)nc-3n(C[C@H](O)[C@H](O)[C@H](O)COP(=O)(O)OP(=O)(O)OC[C@H]3O[C@@H](n4cnc5c(N)ncnc54)[C@H](O)[C@@H]3O)c2cc1C [FAD] | enzyme was in a fully oxidized state with the bound FAD cofactor |  |  |  |  |  | 
2 | D-2-hydroxyglutarate dehydrogenase (P. aeruginosa D2HGDH; EFAD-Zn^2+, EFAD-Ni^2+) (Pseudomonas aeruginosa PAO1) (protein, 6 His-tag at the tail of the gene (C-terminal), pET20b(+), E. coli Rosetta(DE3)pLysS; loaded with Zn2+ or Ni2+) MTREALIESLKPLVEPGKLLDDAASLDAYGKDWTKHFAPAPLAIVFPKSVEQVQAIVRWANQHKVGLVPSGGRTGLSAAAVAANGEVVVAFDYMNRILDFNAFDRTVVCQPGVVTKQLQTFAEENGLYYPVDFASSGSSQIGGNIGTNAGGIKVIRYGMTRNWVAGMKVVTGKGDLLELNKDLIKNATGYDMRQLFIGAEGTLGFVVEATMRLERTPKNLTAMVLGTPDFDSIMPVLHAFQSKLDLTAFEFFSDKALAKVLARGDVPRAFETDCPFYALLEFEATTEEVANEALATFEHCVEQGWVLDGVMSQSEQQLQNLWKLREYISETISHWTPYKNDISVTVSRVPAFLKDIDAIVEANYPDFEVVWFGHIGDGNLHLNILKPENLGKDEFFAKCATVNKWVFETVEKYNGSISAEHGVGMTKRDYLTYTRSETEIAYMKALKAVFDPNGIMNPGKIFAE |  | 140 ± 10 | 18 ± 1 | 130000 ± 9000 | 150 ± 10 | 30 ± 1 | 205000 ± 10000
